Literature values in PMC8946809.

Biological target: His516 (UniProt position 538, FRPNYHGVGTC)
Test: kinetics
Settings: enzyme-substrate complex

Substance: Glucose oxidase (GOx) (Aspergillus niger)
- pKa: 6.9–7.8
